The record followed here is US20190010237A1 (AbbVie / Abbott, published 2019).

The target of assay [1] is T1, Human PRLR expressed on HEK-293 cells (human, UniProt P16471 25-622).
T1 construct: also called PRLR-expressing HEK-293 cells; HEK293/Human PRLR
T1 sequence: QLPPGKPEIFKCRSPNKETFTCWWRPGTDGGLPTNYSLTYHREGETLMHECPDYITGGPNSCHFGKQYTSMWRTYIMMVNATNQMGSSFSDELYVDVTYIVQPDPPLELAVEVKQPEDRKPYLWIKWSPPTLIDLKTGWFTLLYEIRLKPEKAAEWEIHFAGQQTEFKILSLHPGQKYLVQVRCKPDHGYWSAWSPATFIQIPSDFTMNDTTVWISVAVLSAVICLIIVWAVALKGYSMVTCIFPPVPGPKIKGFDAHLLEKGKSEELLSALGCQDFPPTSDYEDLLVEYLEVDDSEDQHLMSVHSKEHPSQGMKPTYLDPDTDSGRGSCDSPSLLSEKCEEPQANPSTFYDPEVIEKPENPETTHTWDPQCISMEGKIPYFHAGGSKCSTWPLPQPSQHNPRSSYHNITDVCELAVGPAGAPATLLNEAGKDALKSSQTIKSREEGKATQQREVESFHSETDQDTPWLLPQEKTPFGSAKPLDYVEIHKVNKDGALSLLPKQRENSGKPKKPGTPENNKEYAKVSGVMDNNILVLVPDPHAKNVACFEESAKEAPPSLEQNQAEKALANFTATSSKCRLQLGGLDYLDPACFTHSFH
In words: FACS titration on PRLR-expressing HEK-293 cells (293hPRLR), MFI against Ab (nM).

Assay [2] concerns the target T2, PRLR (prolactin receptor, as named in the kinetics and crystallography paragraph) (UniProt P16471 25-234, limits assumed).
T2 construct: The paragraph says only 'PRLR'
T2 sequence (looked up): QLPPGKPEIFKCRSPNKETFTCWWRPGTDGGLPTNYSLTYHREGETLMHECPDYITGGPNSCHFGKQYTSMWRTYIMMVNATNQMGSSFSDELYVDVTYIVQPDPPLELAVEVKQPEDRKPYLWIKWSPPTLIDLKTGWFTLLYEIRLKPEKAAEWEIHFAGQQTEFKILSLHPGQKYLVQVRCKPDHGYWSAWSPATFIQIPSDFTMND
The assay is described as follows: kinetic measurement, method not named.

B1: h16e anti-PRLR antibody (antibody, human IgG1, kappa)
heavy: not shown
light: DIQMTQSPSSLSASVGDRVTITCRASENIYSYLAWYQQKPGKPPKLLVYNAKTLAEGVPSRFSGSGSGTDFTLTISSLQPEDFATYYCQHHYATPFTFGQGTKLEIKRTVAAPSVFIFPPSDEQLKSGTASVVCLLNNFYPREAKVQWKVDNALQSGNSQESVTEQDSKDSTYSLSSTLTLSKADYEKHKVYACEVTHQGLSSPVTKSFNRGEC
As to B1, in assay [1], it took 0.5 nM to reach a half-maximal effect (EC50).

B2: h16f humanized anti-PRLR antibody (antibody, human IgG1, kappa)
heavy: not shown
light: DIQMTQSPSSVSASVGDRVTITCKASQYVGTAVAWYQQKPGKSPKLLIYSASNRYTGVPSRFSDSGSGTDFTLTISSLQPEDFATYFCQQYSSYPWTFGGGTKVEIKRTVAAPSVFIFPPSDEQLKSGTASVVCLLNNFYPREAKVQWKVDNALQSGNSQESVTEQDSKDSTYSLSSTLTLSKADYEKHKVYACEVTHQGLSSPVTKSFNRGEC
notes: Humanized IgG1; also called antibody h16f; parental h16f
As to B2, in assay [2], the dissociation constant Kd (commonly a measure of binding affinity in units of concentration) worked out at 0.46 nM and the off-rate constant (koff) (in general, the first-order rate constant of dissociation) is 0.000623 s⁻¹. Moreover, in assay [1], a half-maximal effect (EC50) was put at 0.29 nM.

B3: anti-PRLR antibody LFA-102 (Novartis) (antibody, V domains shown)
VH: EVQLVESGGGLVQPGGSLRLSCAVSGFTFSSYGMSWVRQAPGKRLEWVATVSSGGTYTYYPDSVKGRFTISRDNSKNTLYLQMNSLRAEDTAMYYCARHRGNYYATYYYAMDYWGQGTLVTVSS
VL: DIVLTQSPDSLAVSLGERATINCKASKSVSTSGYTYMHWYQQKPGQPPKLLIYLASNRESGVPDRFSGSGSGTDFTLTISPVQAEDVATYYCQHSGELPPSFGQGTKLEIKR
Turning to B3, in assay [2], the Kd was 1.3 nM and the koff came out at 0.0011 s⁻¹.
